These results are taken from PMC2132493.

In the series the target is mXRN1p (Mus musculus (mouse; testis BALB/c and …, UniProt P97789 1-1719). Briefly: EMSA.
Chain of mXRN1p (Mus musculus (P97789 whole entry): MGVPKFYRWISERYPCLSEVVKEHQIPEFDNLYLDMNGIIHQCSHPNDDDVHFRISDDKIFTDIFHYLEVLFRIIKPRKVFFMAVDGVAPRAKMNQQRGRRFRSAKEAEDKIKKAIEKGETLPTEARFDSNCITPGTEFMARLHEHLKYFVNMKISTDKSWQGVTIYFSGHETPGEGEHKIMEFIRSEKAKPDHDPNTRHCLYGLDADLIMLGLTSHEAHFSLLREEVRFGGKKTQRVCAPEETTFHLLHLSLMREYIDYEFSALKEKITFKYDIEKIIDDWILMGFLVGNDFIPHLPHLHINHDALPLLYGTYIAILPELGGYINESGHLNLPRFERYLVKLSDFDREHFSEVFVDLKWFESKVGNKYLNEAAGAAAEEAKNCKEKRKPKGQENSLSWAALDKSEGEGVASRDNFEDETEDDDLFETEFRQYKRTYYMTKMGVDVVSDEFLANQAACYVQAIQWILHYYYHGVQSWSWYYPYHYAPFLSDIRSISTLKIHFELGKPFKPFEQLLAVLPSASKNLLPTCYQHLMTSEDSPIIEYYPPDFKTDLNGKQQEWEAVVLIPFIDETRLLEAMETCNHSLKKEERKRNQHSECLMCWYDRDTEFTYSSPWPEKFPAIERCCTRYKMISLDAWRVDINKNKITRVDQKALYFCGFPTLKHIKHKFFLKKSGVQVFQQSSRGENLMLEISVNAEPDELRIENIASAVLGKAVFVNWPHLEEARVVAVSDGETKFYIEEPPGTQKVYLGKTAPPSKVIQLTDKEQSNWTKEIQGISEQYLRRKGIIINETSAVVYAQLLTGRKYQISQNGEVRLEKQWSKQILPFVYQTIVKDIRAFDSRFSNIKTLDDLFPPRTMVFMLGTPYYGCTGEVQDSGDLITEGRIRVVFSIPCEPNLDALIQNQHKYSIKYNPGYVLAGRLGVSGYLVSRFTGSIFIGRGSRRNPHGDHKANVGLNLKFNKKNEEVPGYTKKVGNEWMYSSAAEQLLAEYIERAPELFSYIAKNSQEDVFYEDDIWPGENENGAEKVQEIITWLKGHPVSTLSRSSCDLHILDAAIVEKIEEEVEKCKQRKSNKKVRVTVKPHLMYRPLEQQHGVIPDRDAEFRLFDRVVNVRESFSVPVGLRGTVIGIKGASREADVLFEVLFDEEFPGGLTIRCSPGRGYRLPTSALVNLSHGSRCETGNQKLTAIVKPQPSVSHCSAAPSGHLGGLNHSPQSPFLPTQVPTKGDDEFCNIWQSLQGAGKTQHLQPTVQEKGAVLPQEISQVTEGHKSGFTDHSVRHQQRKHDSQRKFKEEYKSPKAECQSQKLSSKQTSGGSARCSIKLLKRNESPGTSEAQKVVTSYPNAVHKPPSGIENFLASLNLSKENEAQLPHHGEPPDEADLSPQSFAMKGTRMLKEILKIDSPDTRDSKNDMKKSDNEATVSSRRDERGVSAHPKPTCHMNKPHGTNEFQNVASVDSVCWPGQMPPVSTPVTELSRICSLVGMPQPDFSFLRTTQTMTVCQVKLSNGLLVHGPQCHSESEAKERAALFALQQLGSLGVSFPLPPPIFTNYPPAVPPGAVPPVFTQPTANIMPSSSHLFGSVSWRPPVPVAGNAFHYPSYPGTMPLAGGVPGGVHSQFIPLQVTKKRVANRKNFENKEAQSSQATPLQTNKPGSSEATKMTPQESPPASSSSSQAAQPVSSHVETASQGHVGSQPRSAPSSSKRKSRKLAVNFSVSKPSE

As for UAUGGGGGAGCUGGGGAAGGUGGGAUUU (structured_RNA) [rGL[G4]], the Ka stood at 2.95e+10 M⁻¹.

TATGGGGGAGCTGGGGAAGGTGGGATTT (structured_DNA) [GL[G4]] returned a Ka of 1.26e+10 M⁻¹.
